Consider 1 molecule from PMC7035337 (2020).

This experiment concerns the target T1, DSP_linker (Homo sapiens (Human), UniProt P15924).
T1 chain: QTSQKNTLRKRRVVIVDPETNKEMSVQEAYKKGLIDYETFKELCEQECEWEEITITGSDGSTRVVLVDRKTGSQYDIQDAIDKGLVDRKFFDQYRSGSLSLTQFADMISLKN
Put plainly: MST.

B1: VIM_rod (protein)
chain 1: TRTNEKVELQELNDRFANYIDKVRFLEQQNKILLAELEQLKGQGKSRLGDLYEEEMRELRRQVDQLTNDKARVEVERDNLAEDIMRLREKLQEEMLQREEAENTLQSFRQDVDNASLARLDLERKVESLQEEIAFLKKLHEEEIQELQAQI
chain 2: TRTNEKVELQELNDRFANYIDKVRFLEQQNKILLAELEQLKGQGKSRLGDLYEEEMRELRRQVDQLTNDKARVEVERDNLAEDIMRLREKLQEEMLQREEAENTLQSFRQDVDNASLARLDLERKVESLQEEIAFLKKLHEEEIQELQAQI
Consider B1, for which the Kd was over 800 µM.
